Data from patent US20160264650A1 (Regeneron, published 2016).

Legend:
CBD-toxin A-Fc [1] = target: T1, CBD-toxin A-Fc (Clostridium difficile, UniProt P16154 1848-2710); assay: SPR Biacore, mAb captured, 100 nM CBD-A-Fc flowed
T1 construct: also called CBD-A; C-term Toxin A

CBD-toxin A-Fc [2] = target: T1, CBD-toxin A-Fc; assay: SPR Biacore, CBD-A-Fc captured, 500 nM mAb flowed
[3] = target: T2, Clostridium difficile toxin A, soluble full-length (TechLab) (Clostridium difficile, UniProt P16154 1-2710); assay: cell-based or functional assay
CBD-toxin B-Fc = target: T3, CBD-toxin B-Fc (Clostridium difficile, UniProt P18177 1851-2366); assay: SPR Biacore, CBD-B-Fc captured, 500 nM mAb flowed
T3 construct: also called CBD-B; C-term Toxin B

[4] = target: T2, Clostridium difficile toxin A, soluble …; assay: SPR Biacore T200, 37C, mAb capture
[5] = target: T4, Clostridium difficile toxin B, soluble full-length (TechLab) (Clostridium difficile, UniProt P18177 2-2366); assay: SPR Biacore T200, 37C, mAb capture
T4 construct: also called tcdB

[6] = target: T5, C-term receptor Binding Domain (CBD) of toxin B (Clostridium difficile, UniProt P18177 1851-2366); assay: SEC (Superose 6) of CBD and mAb mixture
T5 construct: also called CBD-B

CBD-toxin A-Fc [7] = target: T1, CBD-toxin A-Fc; assay: SPR Biacore, mAb capture and CBD-Fc capture formats
[8] = target: T4, Clostridium difficile toxin B, soluble …; assay: cell-based or functional assay

Binder | binding (RU) (CBD-toxin A-Fc [1]) | binding (RU) (CBD-toxin A-Fc [2]) | binding (RU) (CBD-toxin B-Fc) | binding result [6] | Kd [5] | T½ [5] | koff [5] | kon [5] | binding result (CBD-toxin A-Fc [7]) | IC50, Vero cell viability (neutralization), Trial 1, 0.1 pM Toxin B [8] | IC50, Vero cell viability (neutralization), Trial 2, 0.1 pM Toxin B [8] | IC50, Vero cell viability (neutralization), Trial 3, 0.03 pM Toxin B [8] | further results
H1M3117N (antibody, V domains shown) VH: EVQLLESGGGLAQPGGSLRLSCAASGFNFGTHDMSWVRQAPGKGLEWVSGLTSTGGSASSADSVKGRFTISRDNSKNILYLQMNSLRAEDTAVYYCAKTFNWNSYFDYWGQGTLVTVSS VL: EIVLTQSPGTLSLSPGERATLSCRASQSISTYYLAWYQQKPDQPPRLLIYGTSSRATGIPDRFSGSGSGTDFTLTISRLDPEDFAVYYCQQYGNSLYTFGQGTKLEIK | -3 RU | 350 RU |  |  |  |  |  |  |  |  |  |  | IC50, Vero cell viability (neutralization), Trial 1, 32 pM Toxin A [3]: 29 pM; IC50, Vero cell viability (neutralization), Trial 2, 32 pM Toxin A [3]: 11 pM
H1H3324P (antibody, V domains shown) VH: EVQLVESGGGLVQPGGSLRLSCAASGFTFSSYDMHWVRQVIGKGLEWVSAIGTVGDTYYAGSVKGRFTISRENAKNSLYLQMNSLRAGDTAVYYCARDRGGANIYSFYYGMDVWGQGTTVTVSS VL: DIQMTQSPSSLSVSVGDRVTITCRASQDISNYLAWYQQKPGKVPKLLIYAASTLQSGVPSRFSGSGSGTDFTLTISSLQPEDVATYFCQKYNSAPFTFGPGTKVDIKR | 269 RU | 224 RU | -8 RU |  |  |  |  |  |  |  |  |  | Kd [4]: 0.0139 nM; T½ [4]: 54.9 h; koff [4]: 3.5e-06 s⁻¹; kon [4]: 251000 M⁻¹ s⁻¹; IC50, Vero cell viability (neutralization), Trial 4, 32 pM Toxin A [3]: 33 pM
H1H3328P (antibody, V domains shown) VH: EVQLVESGGGLVQPGGSLTLSCAASRFTFSNYDMHWVRQATGKGLEWVSAIGTVGDTYYAGSVKGRFTISRDDAKNSLYLQMNSLRAGDTAVYYCARDRGGAGTYSFYYGMDVWGQGTTVTVSS VL: DIQMTQSPSSLSASVGDRVTITCRASQDISNYLAWYQQKPGKVPKLLIYAASTLQSGVPSRFSGSGSGTDFTLTVSSLQPEDVATYYCQKYTSAPFTFGPGTKVDIKR | 354 RU | 227 RU | -6 RU |  |  |  |  |  |  |  |  |  | Kd [4]: 0.0957 nM; T½ [4]: 5.27 h; koff [4]: 3.66e-05 s⁻¹; kon [4]: 382000 M⁻¹ s⁻¹; IC50, Vero cell viability (neutralization), Trial 3, 32 pM Toxin A [3]: 112 pM
H1H3354P (antibody, V domains shown) VH: QVQLQQSGPGLVKPSQTLSLTCAISGDSVSSNSAAWNWIRQSPSRGLEWLGRTYYRSKWYHDYAFSVKSRILINPDTSKNLFSLQVNSVTPEDTAVYYCARDRRSYFDYWGQGTLVTVSS VL: EIVLTQSPATLSLSPGERATLSCRASRSVSSSLAWYQQKPGQAPRLLIYDASNRATGIPARFSGGGSGTDFTLTISSLEPEDFAVYYCQQRNNWPPTFGQGTKLEIKR | -19 RU | -2 RU |  | no binding (tested: CBD at ~500 nM, CBD:Mab 1:5 and 1:20) |  |  |  |  |  |  |  |  | binding result [5]: no binding (tested: toxin at 5 to 10 nM)
H2aM3067N (antibody, V domains shown, also called H2M3067N; H1M3067N) VH: QIQLVESGGGVVQPGRSLRLSCVASGFTLSGHGMHWVRQAPGKGLEWVAFISFDGGHQDYTDAAEGRFTISRDNSKNTLYLEMVSLRPADTAIYYCVKGSDSSRGFGYWGRGILVTVSS VL: not shown | -2 RU | 237 RU |  |  |  |  |  |  |  |  |  |  | IC50, Vero cell viability (neutralization), Trial 1, 32 pM Toxin A [3]: 64 pM; IC50, Vero cell viability (neutralization), Trial 2, 32 pM Toxin A [3]: 44 pM
H1M3134N (antibody, V domains shown, also called HIM3134N) VH: QVQLVESGGDVVQPGRSLRLSCAASGFTFSGHGMHWVRQAPGKGLEWVALILYDGSSEDYTDSVKGRFTVSRDNSKNTLYLQMNSLRAEDTAVYYCARGSILNRPFDYWGQGTLVTVSS VL: not shown | -1 RU | 195 RU |  |  |  |  |  |  |  |  |  |  | IC50, Vero cell viability (neutralization), Trial 4, 32 pM Toxin A [3]: 38 pM
Control I (anti-toxin A antibody with the variable domains of the "3D8" antibody of U.S. Pat. No. 7,625,559 and US2005/0287150) (antibody, human IgG1, kappa, V domains shown, also called control 1; Control Antibody I) VH: QVQLVESGGGVVQPGRSLRLSCAASGFSFSNYGMHWVRQAPGKGLEWVALIWYDGSNEDYTDSVKGRFTISRDNSKNTLYLQMNSLRAEDTAVYYCARWGMVRGVIDVFDIWGQGTVVTVSS VL: DIQMTQSPSSVSASVGDRVTITCRASQGISSWLAWYQHKPGKAPKLLIYAASSLQSGVPSRFSGSGSGTDFTLTISSLQPEDFATYYCQQANSFPWTFGQGTKVEIKR |  |  |  |  |  |  |  |  |  |  |  |  | Kd [4]: 0.0859 nM; T½ [4]: 0.967 h; koff [4]: 3.24e-05 s⁻¹; kon [4]: 377000 M⁻¹ s⁻¹; IC50, Vero cell viability (neutralization), Trial 5, 25 pM Toxin A [3]: 199 pM
H1H3335P (antibody, V domains shown) VH: EVQLVESGGGLVRPGGSLRLSCAASGFTFRIYAMSWVRQAPGKGLEWVSGISGSGDNTYYTDSVKGRFIISRDNSKSTLYLQMNSLRAEDTAVYYCARGWELLNYWGQGTLVTVSS VL: DIQMTQSPSSLSAFVGDRVTITCRASQDISNHLAWFQQKPGKVPKSLIYAASSLQSGVPSKFSGSGSGTDFTLTISSLQPEDFATYYCQQYGLYPPTFGPGTKVDIKR | 13 RU | 5 RU | -6 RU | no binding (tested: CBD at ~500 nM, CBD:Mab 1:5 and 1:20) | 2.34 nM | 28 min | 0.000414 s⁻¹ | 177000 M⁻¹ s⁻¹ | no binding | 730 pM | 380 pM | 120 pM | 
H1H3344P (antibody, V domains shown) VH: EVQLVESGGGLVQPGGSLRLSCAASGFTFKIYAMSWVRQGPGKGLEWVSAISGNGDKTYYTDSVQGRFTISRDNSKNTLFLQMNSLRAEDTAIYYCARGWELLNYWGQGTLVTVSS VL: DIQMTQSPSSLSASIGDRVTITCRASQDISNSLAWFQQKPGKAPKSLIYAASSLQSGVPSRFSGSGSGTDFTLTISSLQPEDFATYYCQQYIPFPPTFGPGTKVDIKR | 5 RU | 5 RU | -2 RU | no binding (tested: CBD at ~500 nM, CBD:Mab 1:5 and 1:20) | 4.24 nM | 13 min | 0.000865 s⁻¹ | 204000 M⁻¹ s⁻¹ | no binding | 580 pM | 400 pM | 40 pM | 
H1H3337P (antibody, V domains shown) VH: EVQLVESGGGLVQPGGSLRLSCAASGFTFSIYAMSWVRQAPGKGLEWVSGISGSGGRTYYADSVKGRFTISRDNSKNTLYLQMNSLRVEDTAVYYCARGWELLNFWGQGTLVTVSS VL: DIQMTQSPSSLSASVGDRVTITCRASQGISNNLAWFQQKPGKAPKSLIYAASSLKSGVPSKFSGSGSGTDFTLTINSLQPEDFATYYCHQYNSYPPTFGPGTKVDIKR | -17 RU | 8 RU |  | no binding (tested: CBD at ~500 nM, CBD:Mab 1:5 and 1:20) | 3.93 nM | 12 min | 0.000945 s⁻¹ | 241000 M⁻¹ s⁻¹ |  | 1730 pM | 980 pM | 320 pM | 
H1H3339P (antibody, V domains shown) VH: EVQLVESGGGLVQPGGSLRLSCAVSGFTFSIYAMSWVRQAPGKGLEWVSAISGSGDKTYYADSVKGRFTISRDNSKNTLYLQMNSLRAEDTAVFYCARGWELLNYWGQGTLVTVSS VL: DIQMTQSPSSLSASVGDRVTITCRASLDISNFLAWFQQKPGTAPKSLIYSASSLRTGVPSKFSGSGSGTDFTLTISSLQPEDFATYYCQQYSSYPPTFGPGTKVDIKR | 19 RU | 2 RU | -2 RU | no binding (tested: CBD at ~500 nM, CBD:Mab 1:5 and 1:20) | 1.95 nM | 22 min | 0.000537 s⁻¹ | 276000 M⁻¹ s⁻¹ | no binding | 480 pM | 270 pM | 90 pM | 
H1H3343P (antibody, V domains shown) VH: EVQLVESGGGLVQPGGSLRLSCVASGFNFRIYAMSWVRQAPGKGPEWVSGISGSGDNTYYAASVKGRFTVSRDNSKNTLYLQMTSLRAEDTAVFYCARGWELLNYWGQGTLVTVSS VL: DIQMTQSPSSLSASVGDRVTITCRASLDIGNFLAWFQQKPGTAPKSLIYSASSLQTGVPSKFSGSGSGTDFTLTISSLQPEDFATYYCQQYNSYPPTFGPGTKVDIKR | 11 RU | 3 RU | -4 RU | no binding (tested: CBD at ~500 nM, CBD:Mab 1:5 and 1:20) | 1.58 nM | 26 min | 0.000448 s⁻¹ | 284000 M⁻¹ s⁻¹ | no binding | 280 pM | 200 pM | 50 pM | 
